In experiment [1] the target is complex V (D. melanogaster), monomer (D. melanogaster (endogenous in fly mitochondria)). Briefly: native gel or EMSA; complexome profiling: wild-type fly mitochondria solubilised with 6 g digitonin/g protein (50 mM NaCl, 5 mM 6-aminohexanoic acid, 1 mM EDTA, 50 mM imidazole/HCl pH 7.0), 4-16% gradient BN-PAGE, lane cut into 60 slices, LC-MS/MS, label-free quantification.

Experiment [2] has the same target. The experiment is described as follows: native gel or EMSA; BN-PAGE (NativePAGE 3-12% Bis-Tris) of wild-type fly mitochondria solubilised with 4 mg digitonin per mg protein; Coomassie stain and in-gel activity of CI and CIV.
Experiment [3] deals with mitochondrial respiratory chain complex IV (D. melanogaster) (D. melanogaster (endogenous in fly mitochondria)). The experiment is described as follows: native gel or EMSA; BN-PAGE (NativePAGE 3-12% Bis-Tris) of mitochondria solubilised with 4 mg DDM per mg protein; Coomassie, in-gel activity, western blot of subunits; wild-type, Coa8 KO, Coa8 RNAi, strong Bcs1 RNAi and Ndufs4 RNAi flies or larvae with their controls. In general terms: In EMSA bound probe runs differently from free probe, usually more slowly.

For experiment [4] the target is unchanged. The experiment is described as follows: native gel or EMSA; BN-PAGE (NativePAGE 3-12% Bis-Tris) of wild-type fly mitochondria solubilised with 4 mg digitonin per mg protein; Coomassie stain and in-gel activity of CI and CIV.

Data on two substances can be found in article PMC10569793.

The stoichiometry N is a count of units in the complex or per binding partner.

For the substance complex V (D. melanogaster), monomer, the stoichiometry N in experiment [1] and in experiment [2] was 2 each time.

With “mitochondrial respiratory chain complex IV (D. melanogaster)”, the stoichiometry N in experiment [3] and in experiment [4] was 2 each time.
